Here are results for one molecule from publication PMC9114370 (2022).

The assay has as its target T1, TDP-43_(1–102) (human, UniProt Q13148 1-102, fluorescently labelled for MST).
T1 chain: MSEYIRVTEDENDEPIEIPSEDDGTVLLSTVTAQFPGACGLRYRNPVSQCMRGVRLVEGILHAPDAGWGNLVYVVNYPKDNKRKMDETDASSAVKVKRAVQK
Briefly: MST.

B1: HspA5 substrate binding domain (SBD) (domain or fragment)
chain: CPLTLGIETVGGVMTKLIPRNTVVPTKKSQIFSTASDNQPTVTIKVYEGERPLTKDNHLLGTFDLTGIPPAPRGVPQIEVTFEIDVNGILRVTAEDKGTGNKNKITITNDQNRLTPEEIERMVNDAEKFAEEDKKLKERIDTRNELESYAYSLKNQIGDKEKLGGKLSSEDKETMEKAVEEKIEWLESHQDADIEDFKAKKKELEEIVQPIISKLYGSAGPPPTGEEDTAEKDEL
B1: the Kd – broadly, the equilibrium constant for the complex coming apart – was 1440 nM.
